Test results taken from publication PMC4380928.

What was measured:
Experiment in all cases: peptide microarray probed with GST protein
Details in all cases: reference: unphosphorylated Y124 15-mer; sites Y124
GRB2 1-217 = GRB2 1-217 (UniProt P62993)
GRB2 SH2, 75-160 = GRB2 SH2, 75-160 (UniProt P62993)
PIK3R3 (p55γ) 1-461 = PIK3R3 (p55γ) 1-461 (UniProt Q92569)

binding against the reference (GRB2 1-217): gained
binding against the reference (GRB2 SH2, 75-160): gained
binding against the reference (PIK3R3 (p55γ) 1-461): gained
Substance: TSPAN2 (tetraspanin 2) 15-mers, each centred on one tyrosine (from UniProt O60636) pY124 15-mer
